The target of experiment [1] is Visinin-like Protein 1 (VILIP-1), unmyristoylated (human) (UniProt P62760). Put plainly: SEC; Sephadex 200 column, 100 mM NaCl, 20 mM HEPES pH 7.5, 0.5 mL/min; samples with 0.1 mM EDTA or 5 mM CaCl2, non-reduced or reduced with 2.5 mM DTT; monomer and dimer peaks. On the technique in general: SEC sorts molecules by how far they enter the pores of the column.
Experiment [2] has the same target. Kind of experiment: small-angle X-ray scattering (SAXS); 12 mg/mL (542 uM) VILIP-1, 100 mM NaCl, 5 mM CaCl2, 2.5 mM DTT, 20 mM HEPES pH 7.5, 20 °C; mass from forward scattering, ab initio shape.

This passage reports stoichiometry N results from PMC3206844.

A word on the stoichiometry N: it is the number of molecules, sites or subunits per partner or assembly.

For the substance “Visinin-like Protein 1 (VILIP-1), unmyristoylated (from UniProt P62760 1-191) (natural protein)”, the stoichiometry N in experiment [1] and in experiment [2] was 2 in each case.
